# Measured values reported in US20190365916A1 (Bayer, published 2019).
# Residue numbers refer to the chain shown, from its start.
# B1: ADC Example 1c-8987 (anti-CD123 TPP-8987 coupled with Intermediate F325) (antibody, human IgG1, kappa, V domains shown)
# VH: QVQLVQSGAEVKKPGSSVKVSCKASGGTFSDYYMKWVRQAPGQGLEWMGDIIPSNGATFYNQKFKGQVTITADESTSTAYMELSSLRSEDTAVYYCARSHLLRASWFAYWGQGTLVTVSS
# VL: DIVMTQSPDSLAVSLGERATINCESSQSVLNSGNQKNYLTWYQQKPGQPPKLLIYWASTRESGVPDRFSGSGSGTDFTLTISSLQAEDVAVYYCQNDYSYPYTFGQGTKLEIKR
# modifications: KSP inhibitor toxophore-linker of formula (I) (from Intermediate F325) on sulfur atoms of cysteine side chains of the partially reduced antibody; DAR 3.7; positions not given
# B2: ADC Example 1c-9476 (anti-CD123 TPP-9476 coupled with Intermediate F325) (antibody, human IgG1, kappa, V domains shown)
# VH: B1 VH with Q67R
# VL: B1 VL
# modifications: KSP inhibitor toxophore-linker of formula (I) (from Intermediate F325) on sulfur atoms of cysteine side chains of the partially reduced antibody; DAR 3.1; positions not given
# B3: ADC Example 1c-8988 (anti-CD123 TPP-8988 coupled with Intermediate F325) (antibody, human IgG1, kappa, V domains shown)
# VH: EVQLLESGGGLVQPGGSLRLSCAVSDYSITSGYYWNWIRQAPGKKLEWMGYISYDGSNNYNPSLKNGRITISRDTSKNTFYLQMNSLRAEDTAVYYCARGEGFYFDSWGQGTLVTVSS
# VL: EIVLTQSPGTLSLSPGERATLSCKSSQSLFFGSTQKNYLAWYQQKPGQAPRLLIYWASTRESGIPDRFSGSGSGTDFTLTISRLEPEDFAVYYCQQYYNYPWTFGQGTKLEIKR
# modifications: KSP inhibitor toxophore-linker of formula (I) (from Intermediate F325) on sulfur atoms of cysteine side chains of the partially reduced antibody; DAR 3.5; positions not given
# B4: ADC Example 1x-9024 (anti-CXCR5 TPP-9024 coupled with Intermediate F325) (antibody, human IgG1, kappa, V domains shown)
# VH: EVQLVESGGGLVQPGKSLKLSCSASGFTFSTSGMHWFRQAPGKGLDWVAYISSSSGFVYADAVKGRFTISRDNAQNTLYLQLNSLKSEDTAIYYCARSEAAFWGQGTLVTVSS
# VL: DIVLTQAPRSVSVTPGESASISCRSNKSRLSRMGITPLNWYLQKPGKSPQLLIYRMSNLASGVPDRFSGSGSETDFTLKISKVETEDVGVYYCAQFLEYPPTFGSGTKLEIKR
# modifications: KSP inhibitor toxophore-linker of formula (I) (from Intermediate F325) on sulfur atoms of cysteine side chains of the partially reduced antibody; DAR 3.8; positions not given
# B5: ADC Example 1x-9580 (anti-CXCR5 TPP-9580 coupled with Intermediate F325) (antibody, human IgG1, kappa, V domains shown)
# VH: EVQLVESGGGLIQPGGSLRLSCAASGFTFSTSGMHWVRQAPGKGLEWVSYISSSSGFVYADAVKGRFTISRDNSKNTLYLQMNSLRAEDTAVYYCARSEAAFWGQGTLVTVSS
# VL: DIVMTQSPLSLPVTPGEPASISCRSQKSRLSRMGITPLNWYLQKPGQSPQLLIYRMSNLASGVPDRFSGSGSGTDFTLKISRVEAEDVGVYYCAQFLEYPPTFGQGTKLEIKR
# modifications: KSP inhibitor toxophore-linker of formula (I) (from Intermediate F325) on sulfur atoms of cysteine side chains of the partially reduced antibody; DAR 4.2; positions not given
# B6: ADC Example 1x-9574 (anti-CXCR5 TPP-9574 coupled with Intermediate F325) (antibody, human IgG1, kappa, V domains shown)
# VH: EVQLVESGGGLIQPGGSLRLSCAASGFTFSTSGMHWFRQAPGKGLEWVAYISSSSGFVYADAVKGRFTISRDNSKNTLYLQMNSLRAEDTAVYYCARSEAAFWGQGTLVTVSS
# VL: B5 VL
# modifications: KSP inhibitor toxophore-linker of formula (I) (from Intermediate F325) on sulfur atoms of cysteine side chains of the partially reduced antibody; DAR 4.1; positions not given
# B7: reference ADC R1c-9476 (anti-CD123 TPP-9476 coupled with Intermediate F104) (antibody, human IgG1, kappa, V domains shown)
# VH: B1 VH with Q67R
# VL: B1 VL
# modifications: reference KSP inhibitor toxophore-linker (from Intermediate F104) on sulfur atoms of cysteine side chains of the partially reduced antibody; DAR 3.1; positions not given
# B8: reference ADC R1c-8987 (anti-CD123 TPP-8987 coupled with Intermediate F104) (antibody, human IgG1, kappa, V domains shown)
# VH: B1 VH
# VL: B1 VL
# modifications: reference KSP inhibitor toxophore-linker (from Intermediate F104) on sulfur atoms of cysteine side chains of the partially reduced antibody; DAR 1.5; positions not given
# B9: reference ADC R1c-8988 (anti-CD123 TPP-8988 coupled with Intermediate F104) (antibody, human IgG1, kappa, V domains shown)
# VH: B3 VH
# VL: B3 VL
# modifications: reference KSP inhibitor toxophore-linker (from Intermediate F104) on sulfur atoms of cysteine side chains of the partially reduced antibody; DAR 3.4; positions not given
# B10: reference ADC R1x-9024 (anti-CXCR5 TPP-9024 coupled with Intermediate F104) (antibody, human IgG1, kappa, V domains shown)
# VH: B4 VH
# VL: B4 VL
# modifications: reference KSP inhibitor toxophore-linker (from Intermediate F104) on sulfur atoms of cysteine side chains of the partially reduced antibody; DAR 3.7; positions not given
# B11: reference ADC R1x-9574 (anti-CXCR5 TPP-9574 coupled with Intermediate F104) (antibody, human IgG1, kappa, V domains shown)
# VH: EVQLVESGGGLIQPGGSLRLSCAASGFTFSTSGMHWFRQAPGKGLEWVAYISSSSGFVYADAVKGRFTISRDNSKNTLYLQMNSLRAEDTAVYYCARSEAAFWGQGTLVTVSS
# VL: B5 VL
# modifications: reference KSP inhibitor toxophore-linker (from Intermediate F104) on sulfur atoms of cysteine side chains of the partially reduced antibody; DAR 3.9; positions not given
# B12: reference ADC R1x-9580 (anti-CXCR5 TPP-9580 coupled with Intermediate F104) (antibody, human IgG1, kappa, V domains shown)
# VH: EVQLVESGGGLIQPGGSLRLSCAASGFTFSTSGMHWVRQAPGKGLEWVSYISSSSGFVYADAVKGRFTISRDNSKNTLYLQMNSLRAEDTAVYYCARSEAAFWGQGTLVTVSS
# VL: B5 VL
# modifications: reference KSP inhibitor toxophore-linker (from Intermediate F104) on sulfur atoms of cysteine side chains of the partially reduced antibody; DAR 3.7; positions not given
# B13: anti-CD123 antibody TPP-8987 (antibody, human IgG1, kappa, V domains shown)
# VH: B1 VH
# VL: B1 VL
# notes: Humanized anti-CD123 IgG; In the internalization assays it carried CypHer 5E dye on lysines
# B14: anti-CD123 antibody TPP-9476 (antibody, human IgG1, kappa, V domains shown)
# VH: B1 VH with Q67R
# VL: B1 VL
# notes: as for B13
# B15: anti-CD123 antibody TPP-8988 (antibody, human IgG1, kappa, V domains shown)
# VH: B3 VH
# VL: B3 VL
# notes: as for B13
# B16: anti-CXCR5 antibody TPP-9024 (antibody, human IgG1, kappa, V domains shown)
# VH: B4 VH
# VL: B4 VL
# notes: In the internalization assays it carried CypHer 5E dye on lysines
# B17: anti-CXCR5 antibody TPP-9574 (antibody, human IgG1, kappa, V domains shown)
# VH: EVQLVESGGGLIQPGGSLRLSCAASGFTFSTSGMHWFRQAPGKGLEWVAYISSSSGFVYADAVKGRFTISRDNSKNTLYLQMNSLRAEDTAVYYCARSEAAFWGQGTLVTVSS
# VL: B5 VL
# notes: Humanized anti-CXCR5 IgG; In the internalization assays it carried CypHer 5E dye on lysines
# B18: anti-CXCR5 antibody TPP-9580 (antibody, human IgG1, kappa, V domains shown)
# VH: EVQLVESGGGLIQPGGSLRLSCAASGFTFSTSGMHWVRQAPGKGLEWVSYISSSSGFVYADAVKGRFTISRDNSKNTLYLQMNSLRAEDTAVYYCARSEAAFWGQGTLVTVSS
# VL: B5 VL
# notes: as for B17
# Target: T1, surface receptor CD123 (IL3RA) (human, UniProt P26951 19-378)
# T1 sequence (P26951 19-378 limits assumed): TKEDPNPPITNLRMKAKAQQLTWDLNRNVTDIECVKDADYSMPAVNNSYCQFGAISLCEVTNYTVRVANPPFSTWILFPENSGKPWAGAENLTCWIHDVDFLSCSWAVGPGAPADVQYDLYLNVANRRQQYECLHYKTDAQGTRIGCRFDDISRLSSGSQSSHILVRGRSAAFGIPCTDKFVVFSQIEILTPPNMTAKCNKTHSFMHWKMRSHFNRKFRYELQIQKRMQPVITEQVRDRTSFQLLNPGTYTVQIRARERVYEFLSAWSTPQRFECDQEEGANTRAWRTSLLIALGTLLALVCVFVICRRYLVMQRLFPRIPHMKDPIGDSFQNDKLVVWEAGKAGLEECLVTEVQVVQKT
# Experiment: cell-based or functional assay
Binder,"IC50 [M] of growth inhibition, MTT assay, MOLM-13 cells (CD123-positive)","IC50 [M] of growth inhibition, MTT assay, MV-4-11 cells (CD123-positive)"
B1,2.1e-10 M,1.26e-09 M
B2,2.85e-10 M,2.78e-09 M
B3,3.02e-11 M,2.94e-08 M

# Target: T2, receptor protein CXCR5 (CD185) (human, UniProt P32302 1-372)
# T2 sequence: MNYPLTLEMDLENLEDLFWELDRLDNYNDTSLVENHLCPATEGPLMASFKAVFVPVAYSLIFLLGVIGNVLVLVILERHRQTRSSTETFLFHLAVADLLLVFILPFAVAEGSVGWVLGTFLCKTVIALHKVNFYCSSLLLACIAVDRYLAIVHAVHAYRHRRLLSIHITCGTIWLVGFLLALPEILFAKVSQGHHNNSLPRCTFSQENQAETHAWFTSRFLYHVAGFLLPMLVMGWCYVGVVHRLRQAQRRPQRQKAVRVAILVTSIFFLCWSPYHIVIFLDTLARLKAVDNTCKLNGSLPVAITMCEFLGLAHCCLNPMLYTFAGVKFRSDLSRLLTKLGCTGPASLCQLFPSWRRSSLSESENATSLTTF
# Experiment: cell-based or functional assay
row,Binder,"IC50 [M] of growth inhibition, MTT assay, Rec-1 cells (CXCR5-positive)"
1,B4,1.34e-10 M
2,B5,2.78e-09 M
3,B6,2.94e-11 M

# Target: T1, surface receptor CD123 (IL3RA)
# Experiment: cell-based or functional assay
# Remark: another data set of the same source
Binder,"IC50 [M] of growth inhibition, MTT assay, MOLM-13 cells (CD123-positive)","IC50 [M] of growth inhibition, MTT assay, MV-4-11 cells (CD123-positive)"
B7,3.04e-10 M,5.3e-09 M
B8,7.57e-08 M,1.33e-07 M
B9,4.26e-09 M,3.27e-08 M

# Target: T2, receptor protein CXCR5 (CD185)
# Experiment: cell-based or functional assay
# Remark: another data set of the same source
row,Binder,"IC50 [M] of growth inhibition, MTT assay, Rec-1 cells (CXCR5-positive)"
1,B10,1.84e-10 M
2,B11,2.62e-10 M
3,B12,7.16e-11 M

# Target: T1, surface receptor CD123 (IL3RA)
# Experiment: cell binding assay, CypHer 5E-labelled against unlabelled antibody
row,Binder,binding result
1,B13,binds
2,B14,binds
3,B15,binds

# Target: T2, receptor protein CXCR5 (CD185)
# Experiment: as above
row,Binder,binding result
1,B16,binds
2,B17,binds
3,B18,binds
